Results published in paper PMC5727297.

Molecular target: WT SOD1, purified from E. coli (human) (UniProt P00441)
Assay: NMR titration; 100 uM WT [U-15N]-apo-SOD1^SH in PBS pH 7.4 titrated with unlabelled CCS-D2 up to three equivalents, anaerobic, 298 K, 900 MHz

UniProt P00441, sequence (P00441 whole entry): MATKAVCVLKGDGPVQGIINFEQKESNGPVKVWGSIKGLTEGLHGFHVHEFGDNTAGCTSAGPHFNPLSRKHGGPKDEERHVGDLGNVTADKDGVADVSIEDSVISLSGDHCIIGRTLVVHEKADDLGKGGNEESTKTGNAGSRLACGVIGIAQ

CCS-D2, purified from E. coli (domain or fragment)
percent of apo-SOD1^SH still free with 1 equivalent of CCS-D2: 20%
